One assay addresses T1, Cyno CD137-his (cynomolgus monkey, UniProt A9YYE7 24-186).
T1 construct: Bought reagent; also called cynomolgus monkey CD137; cynomolgus CD137 (Sino Biological, 90847-K02H-100)
T1 sequence: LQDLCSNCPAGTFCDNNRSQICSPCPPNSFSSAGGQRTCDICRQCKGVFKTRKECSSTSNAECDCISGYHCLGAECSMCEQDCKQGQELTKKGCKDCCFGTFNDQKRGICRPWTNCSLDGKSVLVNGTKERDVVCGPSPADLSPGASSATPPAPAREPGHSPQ
Nature of the assay: BLI (Octet Red 96), antibody captured on AHC sensor, 1:1 Langmuir fit. Here is the method: (§1) Biolayer interferometry was used to measure the association and dissociation constants for the binding kinetics of the anti-CD137 antibodies. The binding kinetics was measured on a FortieBio Octet Red 96 at 30° C. and analyzed with the FortieBio Data Analysis 9.0 software. Anti-human-IgG Fc (AHC) sensor was used to capture the anti-CD137 antibodies or control antibodies. A kinetic buffer only well was set as a reference well for subtraction during data processing. Data were fitted with a 1:1 Langmuir model for association and dissociation using Rmax linked global fitting for each antibody-antigen binding. Human CD137-his is a recombinant CD137 antigen with a poly histidine tag fused to C-terminus of human CD137 antigen (Sino Biological, 10041-H08H). Cyno CD137-his is a recombinant CD137 antigen with a poly histidine tag fused to C-terminus of cynomolgus CD137 antigen (Sino Biological, 90847-K02H-100).

The target in assay [1] is T2, Human CD137-his (human, UniProt Q07011 24-186).
T2 construct: Bought reagent; also called Human CD137-His (Sino Biological, 10041-H08H)
Described as above. Here is the method:
as §1

Assay [2] concerns the target T2, Human CD137-his. The assay is described as above. Here is the method:
(§2) Biolayer interferometry was used to measure the association and dissociation constants for the binding kinetics of bispecific antibodies. The binding kinetics was measured on a FortieBio Octet Red 96 at 30° C. and analyzed with the FortieBio Data Analysis 9.0 software. Anti-human-IgG Fc (AHC) sensor was used to capture the bispecific or control antibodies. Double binding was performed by association with the first antigen, then dissociation, and association with the second antigen, then dissociation. A regeneration cycle with 20 mM glycine, pH 1.5 was used between different antibody cycles. The 1×kinetic buffer (FortieBio) was used for baseline. Human CD137-His (Sino Biologicals Cat: 10041-H08H) and rhesus CD137-His protein (Sino Biologicals Cat: 90847-K08H) were diluted into kinetic buffer in a series of concentrations. A kinetic buffer only well was set as a reference well for subtraction during data processing. Data were fitted with a 1:1 Langmuir model for association and dissociation using Rmax linked global fitting for each antibody-antigen binding. Human CD137-his is a recombinant CD137 protein with a poly histidine tag fused to C-terminus of human CD137 antigen (Sino Biological, 10041-H08H). Human EGFR-his is a recombinant EGFR protein with a poly histidine tag fused to C-terminus of human EGFR antigen (Acro Biosystem, EGR-H5222-100 ug).
The source holds these as a separate data set.

In assay [3] the target is T2, Human CD137-his. Nature of the assay: BLI (Octet), second round, antibody captured on AHC sensor. Here is the method: as §1
The next assay deals with T3, mouse CD137 (mouse, UniProt P20334 24-187, limits assumed).
T3 sequence (looked up): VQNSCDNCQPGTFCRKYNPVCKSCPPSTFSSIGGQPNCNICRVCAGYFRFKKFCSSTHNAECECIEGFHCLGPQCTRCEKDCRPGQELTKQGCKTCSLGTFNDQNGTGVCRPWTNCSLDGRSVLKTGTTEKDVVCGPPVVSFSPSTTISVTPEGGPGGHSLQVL
Kind of assay: biolayer interferometry (Octet Red 96), antibody captured on AHC sensor.

The next assay addresses T4, Human EGFR-his (human, UniProt P00533 25-645).
T4 construct: Bought reagent; also called EGFR-His (Acro Biosystem, EGR-H5222-100 ug)
Nature of the assay: BLI (Octet Red 96), antibody captured on AHC sensor, 1:1 Langmuir fit. Here is the method:
as §2
In general terms: Biolayer interferometry detects binding as a change in optical thickness at a sensor tip.

B1: Anti-CD137 2-9 IgG2 (antibody, V domains shown)
VH: QVQLVQSGAEVKKPGASVKASCKASGFNIQDTYIHWVRQAPGQGLEWMGRIDPANGNSEYAQKFQGRVTMTRDTSTSTVYMELSSLRSEDTAVYYCTTGNLHYALMDYWGQGTSVTVSS
VL: DIQMTQSPSSVSASVGDRVTITCKASQPINTYLSWYQQKPGKAPKLLIYRVNRKVDGVPSRFSGSGSGTDFTLTISSLQPEDFATYYCLQYLDFPYTFGGGTKLEIKR
notes: also called clone 2-9 IgG2 wt; 2-9 IgG2 wildtype
Regarding B1, the dissociation constant Kd (in general, the concentration at which binding is half-saturated) with Cyno CD137-his was 2.76 nM; with Human CD137-his [1], 9.33 nM; in the assay with Human CD137-his [2], 4.52 nM; with Human CD137-his [3] it was 5.5 nM. The koff (commonly the rate constant with which the complex falls apart) with Cyno CD137-his stood at 0.000712 s⁻¹; in the assay with Human CD137-his [1], 0.000869 s⁻¹; in the assay with Human CD137-his [2], 0.000299 s⁻¹; with Human CD137-his [3], 0.000314 s⁻¹. Further, the kon (in general, the rate constant with which the complex forms) turned out to be 258000 M⁻¹ s⁻¹ with Cyno CD137-his, 93100 M⁻¹ s⁻¹ in the assay with Human CD137-his [1], 66200 M⁻¹ s⁻¹ in the assay with Human CD137-his [2] and 57100 M⁻¹ s⁻¹ in the assay with Human CD137-his [3]. For the same molecule, the binding result in the assay with mouse CD137 is on record as “no binding”.

B2: Anti-CD137 scFv x anti-EGFR IgG1 HCC (bispecific antibody)
heavy: not shown
light: EIVLTQSPATLSLSPGERATLSCRASQSIGTNIHWYQQKPGQAPRLLIKYASESISGIPARFSGSGSGTDFTLTISSLEPEDFAVYYCQQNNNWPTSFGGGTKVEIKRTVAAPSVFIFPPSDEQLKSGTASVVCLLNNFYPREAKVQWKVDNALQSGNSQESVTEQDSKDSTYSLSSTLTLSKADYEKHKVYACEVTHQGLSSPVTKSFNRGEC
notes: The tie rests on the label only; also called 2-9scFv-αEGFR2-HC-C; anti-CD137×EGFR bispecific antibody
With B2, in the assay with Human EGFR-his, the dissociation constant (Kd) is 2.45 nM, the koff worked out at 0.000991 s⁻¹ and the kon came to 404000 M⁻¹ s⁻¹. In the assay with Human CD137-his [2], this molecule yielded a Kd of 6.25 nM, a koff of 0.000116 s⁻¹ and a kon of 18600 M⁻¹ s⁻¹.

(Values after patent US20230067770A1 (SHANGHAI HENLIUS BIOTECH, published 2023).)
